Laboratory results: the supplement of paper PMC10724198
± gives the standard deviation of the averaged measurements.

Legend:
Saccharomyces cerevisiae [1] = assay: protein stability index of tFT-peptide fusion (C-terminal peptide) (PSI (0-1 scale)); higher = more stable (slower turnover); conditions: genetic background: wild type; temperature: 30 C
Saccharomyces cerevisiae [2] = assay: as above
Method: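 MPS profiling in S. cerevisiae of the tFT-X12 degron library: putative degron peptides plus stable controls, 12 aa, fused to the C-terminus of a sfGFP-mCherry timer. Cells are FACS-sorted into 8 mCherry/sfGFP bins and deep-sequenced. PSI runs from 0 (unstable) to 1 (stable). Backgrounds are wild type, das1Δ and doa10Δ at 30 °C, and wild type, das1Δ, cdc34-1 and cdc53-1 at 37 °C; 2-3 technical replicates each.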

[3] = genetic background: cdc34-1, temperature: 37 C
[4] = genetic background: cdc53-1, temperature: 37 C
[5] = genetic background: das1 deletion, temperature: 30 C
[6] = genetic background: das1 deletion, temperature: 37 C
[7] = genetic background: doa10 deletion, temperature: 30 C
[8] = genetic background: wild type, temperature: 30 C
[9] = genetic background: wild type, temperature: 37 C
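Also: PSI is a weighted mean of sequencing reads over stability bins, variants kept only with over 10 reads, mCherry proximal and sfGFP distal, peptide attached via GGGS linker.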

Sequence | protein stability index (Saccharomyces cerevisiae [1]) | protein stability index (Saccharomyces cerevisiae [2]; [3]) | protein stability index (Saccharomyces cerevisiae [2]; [4]) | protein stability index (Saccharomyces cerevisiae [2]; [5]) | protein stability index (Saccharomyces cerevisiae [2]; [6]) | protein stability index (Saccharomyces cerevisiae [2]; [7]) | protein stability index (Saccharomyces cerevisiae [2]; [8]) | protein stability index (Saccharomyces cerevisiae [2]; [9])
FVEFCFWCFWVV | 0.426 ± 0.005 | 0.481 ± 0.008 | 0.575 ± 0.032 | 0.407 ± 0.012 | 0.578 ± 0.026 | 0.351 ± 0.022 | 0.361 ± 0.026 | 0.499 ± 0.0043
FVICGMLVHWMV | 0.434 ± 0.01 | 0.479 ± 0.04 | 0.536 ± 0.084 | 0.376 ± 0.028 | 0.58244 ± 0.00049 | 0.321 ± 0.0041 | 0.344 ± 0.02 | 0.5356 ± 0.0023
FVLLCVLEFVAG | 0.27 ± 0.008 | 0.104 ± 0.027 | 0.166 ± 0.011 | 0.173 ± 0.025 | 0.299 ± 0.0013 | 0.131 ± 0.004 | 0.151 ± 0.036 | 0.253 ± 0.0087
FVVFLLFFMLYH | 0.379 ± 0.043 | 0.312 ± 0.052 | 0.428 ± 0.019 | 0.317 ± 0.048 | 0.4366 ± 0.0024 | 0.311 ± 0.004 | 0.305 ± 0.025 | 0.411 ± 0.0096
FVVFYFFLLFGV | 0.3283 ± 0.00033 | 0.318 ± 0.032 | 0.379 ± 0.0099 | 0.298 ± 0.034 | 0.454 ± 0.023 | 0.289 ± 0.006 | 0.264 ± 0.025 | 0.4219 ± 0.0009
FVVVCWFWGGGF | 0.425 ± 0.026 | 0.3213 ± 0.0031 | 0.406 ± 0.0042 | 0.283 ± 0.036 | 0.465 ± 0.013 | 0.257 ± 0.012 | 0.27 ± 0.048 | 0.429 ± 0.021
FWMLCFLCRLTV | 0.32 ± 0.03 | 0.3236 ± 0.0019 | 0.338 ± 0.0098 | 0.306 ± 0.043 | 0.459 ± 0.011 | 0.2213 ± 0.0021 | 0.221 ± 0.026 | 0.361 ± 0.0071
FWVNFLFVLFIL | 0.296 ± 0.049 | 0.257 ± 0.023 | 0.233 ± 0.018 | 0.261 ± 0.036 | 0.4 ± 0.027 | 0.263 ± 0.005 | 0.197 ± 0.022 | 0.307 ± 0.02
FYACRLWLVSVR | 0.29 ± 0.0033 | 0.161 ± 0.027 | 0.196 ± 0.011 | 0.191 ± 0.023 | 0.313 ± 0.0039 | 0.158 ± 0.007 | 0.184 ± 0.021 | 0.269 ± 0.0029
GACRVSSCVVVC | 0.4477 ± 0.0044 | 0.504 ± 0.011 | 0.548 ± 0.024 | 0.37 ± 0.032 | 0.571 ± 0.0072 | 0.316 ± 0.006 | 0.358 ± 0.014 | 0.526 ± 0.0059
GAFAGDVWRCVV | 0.297 ± 0.024 | 0.627 ± 0.02 | 0.755 ± 0.02 | 0.653 ± 0.025 | 0.778 ± 0.014 | 0.154 ± 0.0073 | 0.165 ± 0.026 | 0.2682 ± 0.0021
GALWVLGVVVGG | 0.467 ± 0.018 | 0.461 ± 0.0066 | 0.505 ± 0.0085 | 0.365 ± 0.026 | 0.537 ± 0.0094 | 0.329 ± 0.012 | 0.364 ± 0.027 | 0.511 ± 0.013
GAVRRWGWVSFV | 0.331 ± 0.044 | 0.633 ± 0.052 | 0.7476 ± 0.0049 | 0.6425 ± 0.0039 | 0.744 ± 0.013 | 0.173 ± 0.0068 | 0.193 ± 0.0085 | 0.393 ± 0.004
GAVVYGICFCTN | 0.442 ± 0.061 | 0.624 ± 0.011 | 0.617 ± 0.0081 | 0.388 ± 0.031 | 0.637 ± 0.027 | 0.35 ± 0.0049 | 0.363 ± 0.035 | 0.621 ± 0.0069
GCLVVVGFFSVF | 0.326 ± 0.033 | 0.214 ± 0.049 | 0.416 ± 0.041 | 0.255 ± 0.028 | 0.458 ± 0.028 | 0.2 ± 0.011 | 0.241 ± 0.0093 | 0.409 ± 0.018
GCVLVFFLRLDL | 0.49 ± 0.072 | 0.4328 ± 0.0006 | 0.538 ± 0.067 | 0.354 ± 0.034 | 0.557 ± 0.034 | 0.3466 ± 0.0014 | 0.365 ± 0.0072 | 0.562 ± 0.01
GFALGSFMLVLR | 0.0977 ± 0.0089 | 0.0226 ± 0.0077 | 0.0469 ± 0.019 | 0.0861 ± 0.012 | 0.0844 ± 0.0018 | 0.596 ± 0.037 | 0.0702 ± 0.012 | 0.0617 ± 0.0078
GFCFVFVFQCFF | 0.394 ± 0.049 | 0.339 ± 0.0077 | 0.451 ± 0.034 | 0.288 ± 0.031 | 0.431 ± 0.0031 | 0.267 ± 0.0043 | 0.276 ± 0.039 | 0.402 ± 0.014
GFFFLFFVSAFI | 0.407 ± 0.026 | 0.368 ± 0.021 | 0.4553 ± 0.0027 | 0.327 ± 0.034 | 0.485 ± 0.011 | 0.2992 ± 0.0012 | 0.311 ± 0.064 | 0.445 ± 0.0067
GFFFYFVLFGLS | 0.409 ± 0.0059 | 0.34 ± 0.061 | 0.409 ± 0.0011 | 0.29 ± 0.015 | 0.47314 ± 0.00013 | 0.285 ± 0.011 | 0.268 ± 0.018 | 0.446 ± 0.016
GFISKLIIKLAA | 0.435 ± 0.0059 | 0.542 ± 0.0055 | 0.566 ± 0.032 | 0.43 ± 0.025 | 0.5511 ± 0.0043 | 0.269 ± 0.0091 | 0.319 ± 0.016 | 0.462 ± 0.026
GFVLMLLVRFEL | 0.419 ± 0.034 | 0.299 ± 0.037 | 0.416 ± 0.0054 | 0.309 ± 0.031 | 0.474 ± 0.015 | 0.328 ± 0.011 | 0.294 ± 0.046 | 0.465 ± 0.035
GGFRVLLWCVVW | 0.28 ± 0.016 | 0.19 ± 0.046 | 0.3237 ± 0.0018 | 0.214 ± 0.041 | 0.399 ± 0.0044 | 0.184 ± 0.0074 | 0.208 ± 0.03 | 0.35 ± 0.028
GGGEGVVWVRLG | 0.272 ± 0.018 | 0.537 ± 0.054 | 0.72 ± 0.011 | 0.637 ± 0.0046 | 0.737 ± 0.009 | 0.116 ± 0.012 | 0.131 ± 0.0021 | 0.19 ± 0.01
GGGWCEMLIVVG | 0.441 ± 0.018 | 0.506 ± 0.018 | 0.512 ± 0.026 | 0.358 ± 0.029 | 0.5495 ± 0.0039 | 0.324 ± 0.013 | 0.367 ± 0.03 | 0.542 ± 0.017
GGRFVWIVRAVG | 0.471 ± 0.014 | 0.6323 ± 0.0024 | 0.727 ± 0.017 | 0.611 ± 0.021 | 0.73 ± 0.022 | 0.233 ± 0.004 | 0.272 ± 0.037 | 0.568 ± 0.057
GGRHYGILDLSL | 0.7174 ± 0.0062 | 0.638 ± 0.063 | 0.708 ± 0.013 | 0.677 ± 0.019 | 0.719 ± 0.024 | 0.6927 ± 0.0056 | 0.677 ± 0.025 | 0.6992 ± 0.00076
GGVSPRSSMDLL | 0.434 ± 0.21 | 0.6849 ± 0.0066 | 0.764 ± 0.01 | 0.646 ± 0.023 | 0.736 ± 0.029 | 0.648 ± 0.0075 | 0.645 ± 0.012 | 0.7319 ± 0.0035
GGVWVLGVAVVW | 0.348 ± 0.062 | 0.114 ± 0.014 | 0.132 ± 0.029 | 0.246 ± 0.019 | 0.349 ± 0.017 | 0.207 ± 0.0064 | 0.236 ± 0.023 | 0.275 ± 0.0036
GGWSFSSLWKIA | 0.301 ± 0.09 | 0.625 ± 0.066 | 0.817 ± 0.015 | 0.765 ± 0.038 | 0.8379 ± 0.0033 | 0.126 ± 0.013 | 0.127 ± 0.019 | 0.205 ± 0.012
